Experimental data: PMC2937177

Molecular target: T1, KcsA (S. lividans), P0A334
T1 chain: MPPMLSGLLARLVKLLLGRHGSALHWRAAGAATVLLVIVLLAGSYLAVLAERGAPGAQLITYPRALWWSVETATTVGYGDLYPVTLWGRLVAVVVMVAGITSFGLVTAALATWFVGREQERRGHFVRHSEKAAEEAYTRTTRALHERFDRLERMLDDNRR
Assay: SDS-PAGE
Conditions: remark: other sources report otherwise

B1: KcsA, P0A334 1-160 (natural protein)
chain: T1 chain
- stoichiometry N: 4
